The source of these data is patent publication US20240132578A1.

Holding throughout (experiment): cell-based or functional assay
Test [1] deals with aMLV envelope.
The target of test [2] is HIV-1 envelope glycoprotein (Env) of isolate 6535.3, on pseudovirus (HIV-1).
Test [3] concerns the target HIV-1 envelope glycoprotein (Env) of isolate TRO.11, on pseudovirus (HIV-1).
For test [4], the target named is HIV-1 envelope glycoprotein (Env) of isolate MGRM-Chronic-B-023, on pseudovirus (HIV-1).
Test [5] has as its target HIV-1 envelope glycoprotein (Env) of isolate 93WR029, subtype A (HIV-1).
Test [6] addresses HIV-1 Env of isolate MGRM-F1-015 (pseudovirus) (HIV-1).
Test [7] has as its target HIV-1 CMU02 Env (HIV-1).
In test [8] the target is HIV-1 Env of isolate MGRM-F1-022 (pseudovirus) (HIV-1).
In test [9] the target is HIV-1 JR-CSF Env I307A (HIV-1 (isolate JR-CSF, clade B)) (UniProt P20871).
The target in test [10] is HIV-1 envelope glycoprotein (Env) of isolate MG RM-A-013, subtype A (HIV-1).
Test [11] deals with HIV-1 envelope glycoprotein (Env) of isolate MGRM-Chronic-B-024, on pseudovirus (HIV-1).
The target in test [12] is HIV-1 Env of isolate MGRM-AG-009 (pseudovirus) (HIV-1).
Test [13] deals with HIV-1 Env of isolate MGRM-F1-020 (pseudovirus) (HIV-1).
In test [14] the target is HIV-1 JR-CSF Env R419A (HIV-1 (isolate JR-CSF)) (UniProt P20871).
For test [15], the target named is HIV-1 Env of pseudovirus MGRM-F1-015 (HIV-1).
For test [16], the target named is HIV-1 Env of pseudovirus MGRM-D-018 (HIV-1).
Test [17] addresses HIV-1 Env of pseudovirus MGRM-D-029 (HIV-1).
Test [18] concerns the target HIV-1 Env of pseudovirus MGRM-F1-010 (HIV-1).
Test [19] addresses HIV-1 Env of isolate MGRM-G-001 (subtype G) (HIV-1).
The target in test [20] is HIV-1 Env of isolate MGRM-D-008 (HIV-1).
The target of test [21] is HIV-1 Env of isolate 92RW008 (subtype A) (HIV-1).
For test [22], the target named is HIV-1 Env of isolate 98CN006 (HIV-1).
In test [23] the target is HIV-1 Env of isolate MGRM-F1-006 (HIV-1).
The target of test [24] is HIV-1 Env of isolate 92UG024 (pseudovirus) (HIV-1).
For test [25], the target named is HIV-1 Env of isolate MGRM-D-029 (HIV-1).
The target in test [26] is HIV-1 Env of isolate MGRM-D-021 (pseudovirus) (HIV-1).
The target of test [27] is HIV-1 Env of isolate MGRM-A-006 (pseudovirus) (HIV-1).
The target in test [28] is HIV-1 Env of isolate MGRM-D-013 (pseudovirus) (HIV-1).
Test [29] deals with HIV-1 Env of isolate MGRM-A-004 (pseudovirus) (HIV-1).
Test [30] deals with HIV-1 Env of isolate MGRM-D-011 (pseudovirus) (HIV-1).
Test [31] concerns the target HIV-1 Env of pseudovirus isolate MGRM-C-014 (clade C) (HIV-1).
The target in test [32] is HIV-1 Env of isolate MGRM-AG-005 (subtype AG) (HIV-1).
Test [33] concerns the target HIV-1 Env of isolate MGRM-AG-011 (subtype AG) (HIV-1).
In test [34] the target is HIV-1 MGRM-AG-005 Env (pseudovirus) (HIV-1).

Some results are limits rather than exact numbers.

With 4858_P08 (PGT-123) (antibody), the IC50, pseudovirus neutralization was above 10 µg/mL in test [1]; 0.004 µg/mL in test [2]; 0.008 µg/mL in test [3]; 0.055 µg/mL in test [4]; above 50 µg/mL in test [5]; above 10 µg/mL in test [7]. The results for the IC50, pseudovirus neutralization in test [10] and in [11] were 0.565 µg/mL and above 50 µg/mL, respectively. Further, the IC50 (µg/mL), pseudovirus neutralization in test [6] was above 50 µg/mL; in test [8] it was 0.075 µg/mL; in [12], 0.073 µg/mL; in test [13] it was 0.051 µg/mL. The same substance showed a Fold IC50 increase relative to wild-type in test [9] of 5.9 fold. In [14], the Fold IC50 increase relative to wild-type (pseudovirus neutralization) worked out at 0.7 fold.

For the substance 5145_B14 (PGT-127) (antibody), the IC50, pseudovirus neutralization in test [2] is 0.02 µg/mL; in test [3], 0.079 µg/mL; in test [4] it was above 50 µg/mL; in test [5], above 50 µg/mL; in test [10], 0.029 µg/mL; in [11] it was above 50 µg/mL. Also, the IC50 (µg/mL), pseudovirus neutralization is above 50 µg/mL in [6], above 50 µg/mL in [8], 0.059 µg/mL in test [12] and above 50 µg/mL in test [13]. Further, in [9], the Fold IC50 increase relative to wild-type was determined as 10.2 fold. In test [14], this substance returned a Fold IC50 increase relative to wild-type (pseudovirus neutralization) of 2.5 fold.

In the case of PGT-142 (4995_E20) (antibody), the IC50, pseudovirus neutralization in test [15] is above 50 µg/mL; in test [16] it was above 50 µg/mL; in test [17] it was 0.192 µg/mL; in [18], above 50 µg/mL.

On to VRC01 (antibody), for which the IC50, pseudovirus neutralization was 0.387 µg/mL in test [15]; above 50 µg/mL in [16]; 3.22 µg/mL in test [17]; 0.037 µg/mL in test [21]; 0.097 µg/mL in [18]. Also, the values for the IC50 (µg/mL), pseudovirus neutralization in test [19], in test [20] and in test [22] were 0.0371 µg/mL, 0.854 µg/mL and 0.644 µg/mL, respectively.

Turning to PGT-143 (4980_N08) (antibody), the IC50, pseudovirus neutralization in test [15] is above 50 µg/mL; in test [16] it was above 50 µg/mL; in test [17] it was 0.2 µg/mL; in [18], above 50 µg/mL.

For the substance 4970_K22 (PGT-144) (antibody), the IC50 (µg/mL), pseudovirus neutralization was above 50 µg/mL in test [19], 9.85 µg/mL in test [20] and above 50 µg/mL in test [22]. This substance gave an IC50, pseudovirus neutralization in test [21] above 50 µg/mL.

On to PGT-145 (4995_P16) (antibody), for which the IC50, pseudovirus neutralization came out at 1.76 µg/mL in [15], 0.065 µg/mL in [16], 0.03 µg/mL in [17] and 3.32 µg/mL in test [18].

Consider 4995_E20 (PGT-142) (antibody), for which the IC50 (µg/mL), pseudovirus neutralization in test [19] is 0.362 µg/mL; in test [20], 0.174 µg/mL; in test [22], above 50 µg/mL. Moreover, the IC50, pseudovirus neutralization in test [21] is 0.447 µg/mL.

Turning to 5345_I01 (PGT-137) (antibody), the IC50 (µg/mL), pseudovirus neutralization in test [23] is above 50 µg/mL; in test [24], 0.106 µg/mL; in [25], above 50 µg/mL; in [26], above 50 µg/mL; in test [27], above 50 µg/mL; in test [28] it was above 50 µg/mL. Besides, the IC50 (µg/mL), pseudovirus neutralization in test [29] is above 50 µg/mL; in test [30], 6.3 µg/mL. Further, the IC50, pseudovirus neutralization in test [31], in test [32] and in [33] was above 50 µg/mL throughout.

In the case of 5343_B08 (PGT-135) (antibody), the IC50 (µg/mL), pseudovirus neutralization was above 50 µg/mL in test [23]; 0.01 µg/mL in test [24]; 30.8 µg/mL in test [25]; above 50 µg/mL in test [26]; above 50 µg/mL in [27]; above 50 µg/mL in test [28]. Further, the IC50 (µg/mL), pseudovirus neutralization in test [29] is above 50 µg/mL; in [30], 23.5 µg/mL. Besides, the IC50, pseudovirus neutralization in [31], in test [32] and in [33] was above 50 µg/mL throughout. Further, in test [14], the Fold IC50 increase relative to wild-type (pseudovirus neutralization) turned out to be 3.9 fold.

Turning to 5329_C19 (PGT-136) (antibody), the IC50 (µg/mL), pseudovirus neutralization in test [23] was above 50 µg/mL; in test [24] it was 0.052 µg/mL; in test [25], above 50 µg/mL; in test [26], above 50 µg/mL; in test [27], above 50 µg/mL; in test [28] it was above 50 µg/mL. Besides, the IC50 (µg/mL), pseudovirus neutralization in [29] and in test [30] was above 50 µg/mL in each case. The IC50, pseudovirus neutralization in test [31], in [32] and in [33] was above 50 µg/mL in each case.

In the case of 4993_K13 (PGT-141) (antibody), the figures for the IC50 (µg/mL), pseudovirus neutralization in test [19], in test [20] and in test [22] were 0.392 µg/mL, 0.371 µg/mL and above 50 µg/mL, respectively. This substance yielded an IC50, pseudovirus neutralization in [21] of 0.579 µg/mL.

As for PGT-141 (4964_G22; 4993_K13) (antibody), the IC50, pseudovirus neutralization in test [15] was above 50 µg/mL; in [16], above 50 µg/mL; in test [17], 0.057 µg/mL; in test [18], above 50 µg/mL.

Consider 4995_P16 (PGT-145) (antibody), for which the IC50 (µg/mL), pseudovirus neutralization is 0.028 µg/mL in test [19], 0.025 µg/mL in test [20] and above 50 µg/mL in test [22]. This substance also came in with an IC50, pseudovirus neutralization in [21] of 0.4 µg/mL.

In the case of 4980_N08 (PGT-143) (antibody), the IC50 (µg/mL), pseudovirus neutralization was 0.423 µg/mL in test [19], 0.153 µg/mL in [20] and above 50 µg/mL in test [22]. Moreover, the IC50, pseudovirus neutralization in [21] stood at 0.385 µg/mL.

As to 5123_A06 (PGT-125) (antibody), the IC50, pseudovirus neutralization in test [1] is above 10 µg/mL; in [2], 0.01 µg/mL; in test [3] it was 0.111 µg/mL; in test [4] it was above 50 µg/mL; in test [5], above 50 µg/mL; in [7], above 10 µg/mL. For the same substance, the IC50, pseudovirus neutralization in [10] is 0.014 µg/mL; in test [11] it was above 50 µg/mL. The IC50 (µg/mL), pseudovirus neutralization was above 50 µg/mL in test [6], above 50 µg/mL in test [8], 0.026 µg/mL in test [12] and above 50 µg/mL in [13]. Besides, the Neutralization by PGT-125, IC50 in [34] is above 10 µg/mL. In [34], the Neutralization by PGT-125, IC80 was above 10 µg/mL. For the same substance, in [34], the Neutralization by PGT-125, IC90 was above 10 µg/mL. In [34], this substance came in with a Neutralization by PGT-125, IC95 above 10 µg/mL. For the same substance, in test [9], the Fold IC50 increase relative to wild-type amounted to 5 fold. Also, the Fold IC50 increase relative to wild-type (pseudovirus neutralization) in test [14] stood at 1 fold.

In the case of PGT-144 (4970_K22) (antibody), the IC50, pseudovirus neutralization in [15] is above 50 µg/mL; in test [16], above 50 µg/mL; in [17], 0.459 µg/mL; in test [18], above 50 µg/mL.
